Reference: patent US20030143656A1

Tests used:
[1] = biological target: endogenous PDK1 (293 cells) (human) (UniProt O15530); test: cell-based or functional assay
PIFtide (human) = test: method not stated (reference mark lost)
PIFtide (human), sequence (peptide, as listed by the source): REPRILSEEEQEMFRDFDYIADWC

endogenous PDK1 (293 cells) (human), sequence (O15530 whole entry): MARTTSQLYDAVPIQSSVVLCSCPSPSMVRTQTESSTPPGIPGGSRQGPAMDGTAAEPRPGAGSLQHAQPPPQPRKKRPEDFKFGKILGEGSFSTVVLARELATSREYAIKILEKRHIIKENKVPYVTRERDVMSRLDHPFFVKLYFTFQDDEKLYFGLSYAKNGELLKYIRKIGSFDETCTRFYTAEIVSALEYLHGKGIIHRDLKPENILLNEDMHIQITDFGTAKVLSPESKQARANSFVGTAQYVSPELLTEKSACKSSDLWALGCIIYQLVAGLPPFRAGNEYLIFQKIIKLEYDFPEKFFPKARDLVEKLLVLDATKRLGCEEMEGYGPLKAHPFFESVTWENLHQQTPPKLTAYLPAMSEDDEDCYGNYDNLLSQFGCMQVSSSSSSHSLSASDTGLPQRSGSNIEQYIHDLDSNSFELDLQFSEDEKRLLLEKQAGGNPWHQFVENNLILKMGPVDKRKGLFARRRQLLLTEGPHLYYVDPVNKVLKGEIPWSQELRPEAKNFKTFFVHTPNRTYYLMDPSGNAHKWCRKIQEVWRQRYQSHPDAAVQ

Row | activation of p70 S6K on cotransfection with GST-F977A-PIF [1] | fold decrease in affinity for PIFtide (PIFtide (human)) | Substance
1 | 50% | – | GST-F977A-PIF (from UniProt Q16513 908-984)
2 | – | 10 fold | GST-PDK1 I119A (from UniProt O15530 1-556) (enzyme)
